Assay results from patent US20110319338A1, “PEPTIDES THAT BIND EUKARYOTIC TRANSLATION INITIATION FACTOR 4E” (The Board of Regents of the University of Texas System, priority 2008, published 2011).
Read-outs that look alike come from different tables or passages of the source.

Columns and labels:
[1] = molecular target: T1, binding of eIF4E to eIF4G (Homo sapiens, UniProt P06730); experiment: Immunoprecipitation with eIF4E antibody and Western blot with eIF4G antibody, OVCAR-3 cell lysate incubated with peptide; conditions: peptide 3 micromoles per liter, 250 micrograms OVCAR-3 cell lysate
T1 construct: endogenous in cells; host or cells: OVCAR-3 cell lysate
T1 sequence (P06730 2-217 limits assumed): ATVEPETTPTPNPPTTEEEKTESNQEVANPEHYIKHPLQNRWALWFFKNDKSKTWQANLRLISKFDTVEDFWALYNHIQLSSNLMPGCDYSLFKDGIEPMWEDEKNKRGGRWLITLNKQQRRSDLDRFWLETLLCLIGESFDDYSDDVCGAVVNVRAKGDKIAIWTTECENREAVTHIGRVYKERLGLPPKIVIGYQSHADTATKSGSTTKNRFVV
Protocol: (§1) FIGS. 1A-1G. 4EBP peptides bind eIF4E and inhibit binding of eIF4E to eIF4G. (FIG. 1A) Sequences of peptides comprising residues 49 to 68 of 4EBP1 and 4EBP2. (FIG. 1B) Biotinylated peptides (3 micromoles per liter) were incubated with 250 micrograms of OVCAR-3 cell lysate. Peptides were pulled-down using streptavidin-agarose. Precipitates (P) and supernatants (S) were analyzed by Western blot using eIF4E antibody. In (FIG. 1C), immunoprecipitation was performed using eIF4E antibody, and Western blot performed using eIF4G antibody. (FIG. 1D) Sequences of wild-type and mutant 4EBP peptides fused to TAT (mutant residues are highlighted). (FIG. 1E) OVCAR-3 cells were treated with biotinylated peptides (3 micromoles per liter, final concentration) for 16 hours. Internalized peptides were detected by staining fixed cells with Texas Red-conjugated streptavidin. Nuclei were visualized by staining with 4′,6-Diamidino-2-Phenylindole (DAPI). (FIGS. 1F and 1G) OVCAR-3 cell lysates were incubated with peptides as described for FIG. 1B. In (FIG. 1F), immunoprecipitation was performed using streptavidin-agarose and Western blot performed using eIF4E antibody. In (FIG. 1G), immunoprecipitation was performed using eIF4E antibody, and Western blot performed using eIF4G antibody.
(§2) FIGS. 3A-3H. Uptake, binding and inhibitory effects of [DLys6]GnRH-4EBP fusion peptides. (FIG. 3A) Sequences of [DLys6]GnRH, and wild-type and mutant 4EBP1 peptides fused to the agonist. (FIG. 3B) Western blot of GnRH-RI levels in OVCAR-3, ES-2, MDA-MB-231, BJ, HUVEC and SKOV3 cells. (FIG. 3C) Detection of biotinylated peptides in OVCAR-3 and SKOV3 by Texas Red-conjugated streptavidin at 16 hours after peptide addition (3 micromoles per liter). In (FIGS. 3D and 3E), biotinylated peptides were incubated with OVCAR-3 cell lysate as described in FIG. 1. In (FIG. 3D), peptide was pulled down using streptavidin-agarose. Precipitates (P) and supernatants (S) were analyzed by Western blot using eIF4E antibody. In (FIG. 3E), immunoprecipitation was performed using eIF4E antibody, and Western blot performed using eIF4G antibody. (FIG. 3F) R-Luc and F-Luc activities were assayed in ES-2-DualLuc cells at 6 hours after addition of the indicated concentrations of peptides, and are expressed relative to the respective luciferase activities in cells incubated without peptide. Shown are results of triplicate assays performed independently two times, and the statistical significance of differences in relative R-Luc and F-Luc activities in cells treated with peptide at a concentration of 10 micromoles per liter (FIG. 3G) Cells of GnRH-RI-positive and -negative lines were treated with the indicated concentrations of peptides. […]

eIF4E = molecular target: T2, eIF4E (Homo sapiens, UniProt P06730); experiment: Streptavidin-agarose pull-down of biotinylated peptide from OVCAR-3 cell lysate, Western blot with eIF4E antibody; type: binding; conditions: biotinylated peptide 3 micromoles per liter, 250 micrograms OVCAR-3 cell lysate
T2 construct: endogenous in cells; host or cells: OVCAR-3 cell lysate
T2 sequence (P06730 whole entry): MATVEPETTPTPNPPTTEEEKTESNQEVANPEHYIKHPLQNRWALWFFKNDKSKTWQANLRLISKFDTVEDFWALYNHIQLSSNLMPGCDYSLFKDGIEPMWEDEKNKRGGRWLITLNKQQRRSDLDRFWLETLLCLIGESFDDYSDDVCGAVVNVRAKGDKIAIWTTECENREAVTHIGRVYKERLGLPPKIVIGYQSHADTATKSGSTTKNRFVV
Protocol: as §1, §2

ES-2-DualLuc cells = experiment: Cell-based translation assay with bicistronic R-Luc/F-Luc reporter
Protocol: (§3) FIGS. 2A-2F. Inhibition of cap-dependent translation and cell growth by TAT-4EBP fusion peptides. (FIG. 2A) Representation of the pIRES-DualLuc bicistronic construct containing Renilla Luciferase (R-Luc) and firefly luciferase (F-Luc) genes. In (FIG. 2B), R-Luc and F-Luc activities were assayed in ES-2-DualLuc cells following treatment for 24 hours with rapamycin and for 3 hours with cycloheximide with the indicated concentrations of these drugs, and expressed relative to the respective luciferase activities in cells incubated without drug. Cell viability was not affected by rapamycin and cycloheximide under these conditions. In (FIG. 2C), R-Luc and F-Luc activities were assayed in ES-2-DualLuc cells following treatment for 6 hours with the indicated concentrations of peptides, and expressed relative to the respective luciferase activities in cells incubated without peptide. Shown are results of triplicate assays performed independently two times, and the statistical significance of differences in relative R-Luc and F-Luc activities in cells treated with peptide at a concentration of 10 micromoles per liter. (FIG. 2D) Viability of OVCAR-3 cells at 3 days after addition of the indicated concentrations of peptides, expressed relative to viability of cells incubated without peptide. Shown are results of triplicate assays performed in two independent experiments, and statistical significances of differences in viability of cells treated with TAT-4EBP1-WT vs. TAT-4EBP1-MT, and of cells treated with TAT-4EBP2-WT vs. TAT-4EBP2-MT at a concentration of 10 micromoles per liter. (FIG. 2E) OVCAR-3 cells at 3 days after peptide addition (10 micromoles per liter) viewed under phase-contrast microscopy. (FIG. 2F) Flow cytometric analysis of staining of terminal deoxynucleotidyl transferase-mediated dUTP nick end labeling (TUNEL) in OVCAR-3 cells at 3 days after peptide addition (10 micromoles per liter). Cells incubated for 3 days in the absence of peptide in medium with and without serum are included as controls.
FIGS. 3A-3H. Uptake, binding and inhibitory effects of [DLys6]GnRH-4EBP fusion peptides. (FIG. 3A) Sequences of [DLys6]GnRH, and wild-type and mutant 4EBP1 peptides fused to the agonist. (FIG. 3B) Western blot of GnRH-RI levels in OVCAR-3, ES-2, MDA-MB-231, BJ, HUVEC and SKOV3 cells. (FIG. 3C) Detection of biotinylated peptides in OVCAR-3 and SKOV3 by Texas Red-conjugated streptavidin at 16 hours after peptide addition (3 micromoles per liter). In (FIGS. 3D and 3E), biotinylated peptides were incubated with OVCAR-3 cell lysate as described in FIG. 1. In (FIG. 3D), peptide was pulled down using streptavidin-agarose. Precipitates (P) and supernatants (S) were analyzed by Western blot using eIF4E antibody. In (FIG. 3E), immunoprecipitation was performed using eIF4E antibody, and Western blot performed using eIF4G antibody. (FIG. 3F) R-Luc and F-Luc activities were assayed in ES-2-DualLuc cells at 6 hours after addition of the indicated concentrations of peptides, and are expressed relative to the respective luciferase activities in cells incubated without peptide. Shown are results of triplicate assays performed independently two times, and the statistical significance of differences in relative R-Luc and F-Luc activities in cells treated with peptide at a concentration of 10 micromoles per liter (FIG. 3G) Cells of GnRH-RI-positive and -negative lines were treated with the indicated concentrations of peptides. Viability at 3 days after peptide addition is expressed relative to viability of cells incubated with no peptide. Shown are results of triplicate assays performed in two independent experiments, and statistical significances of differences in viability of cells treated with wild-type vs. mutant [DLys6]GnRH-4EBP1 peptides at a concentration of 10 micromoles per liter. (FIG. 3H) ES-2 and parental SKOV3 cells at 3 days after peptide addition (30 micromoles per liter) viewed under phase-contrast microscopy. […]

OVCAR-3 cells = experiment: Cell viability assay (crystal violet); type: cell-based; conditions: OVCAR-3, 3 days after peptide addition, 0.3 to 30 micromoles per liter
Protocol: as §3, with “Shown are results of triplicate assays performed in two independent experiments, and statistical significances of differences in viability of cells treated with TAT-4EBP1-WT vs. TAT-4EBP1-MT, and of cells treated with TAT-4EBP2-WT vs. TAT-4EBP2-MT at a concentration of 10 micromoles per liter. (FIG. 2E) OVCAR-3 cells at 3 days after peptide addition (10 micromoles per liter) viewed under phase-contrast microscopy. (FIG. 2F) Flow cytometric analysis of staining of terminal deoxynucleotidyl transferase-mediated dUTP nick end labeling (TUNEL) in OVCAR-3 cells at 3 days after peptide addition (10 micromoles per liter). Cells incubated for 3 days in the absence of peptide in medium with and without serum are included as controls.” left out
FIGS. 3A-3H. […] Precipitates (P) and supernatants (S) were analyzed by Western blot using eIF4E antibody. […]

[2] = rapamycin 24 hours, cycloheximide 3 hours

Compound	inhibition of eIF4E binding to eIF4G [1]	binding of peptide to eIF4E (eIF4E)	other results
4EBP2-WT: peptide containing the region of 4EBP2 corresponding to residues 49-68 of 4EBP1 (GTRIIYDRKFLLDRRNSPMA)	inhibited eIF4E from binding eIF4G	bound to eIF4E	–
C[C@@H]1C[C@@H]([C@H](O)CC2CC(=O)NC(=O)C2)C(=O)[C@@H](C)C1 [cycloheximide]	–	–	cap-dependent translation (R-Luc read-out) (ES-2-DualLuc cells; [2]): inhibited both cap-dependent and independent translation; cap-independent translation (F-Luc readout) (ES-2-DualLuc cells; [2]): inhibited both cap-dependent and independent translation; cell viability under translation assay conditions (ES-2-DualLuc cells; [2]): not affected
CO[C@H]1C[C@@H]2CC[C@@H](C)[C@@](O)(O2)C(=O)C(=O)N2CCCC[C@H]2C(=O)O[C@H]([C@H](C)C[C@@H]2CC[C@@H](O)[C@H](OC)C2)CC(=O)[C@H](C)/C=C(\C)[C@@H](O)[C@@H](OC)C(=O)[C@H](C)C[C@H](C)/C=C/C=C/C=C/1C [rapamycin]	–	–	cell viability under translation assay conditions (ES-2-DualLuc cells): not affected
TAT-4EBP1-MT: TAT-4EBP1 fusion peptide in which Tyr-54, Arg-56 and Leu-59 were substituted by Gly (YGRKKRRQRRRGTRIIGDGKFGMECRNSPVT)	substantially impaired	substantially impaired	–
TAT-4EBP2-MT: TAT-4EBP2 fusion peptide in which Tyr-54, Arg-56 and Leu-59 were substituted by Gly (YGRKKRRQRRRGTRIIGDGKFGLDRRNSPMA)	substantially impaired	substantially impaired	–
TAT-4EBP2-WT: wild-type 4EBP2 residues fused to cell-penetrating residues of HIV TAT protein (YGRKKRRQRRRGTRIIYDRKFLLDRRNSPMA)	–	–	cap-dependent translation (R-Luc read-out) (ES-2-DualLuc cells; peptide 6 hours, 0.3 to 10 micromoles per liter, relative to cells without peptide): also inhibited cap-dependent translation, but was slightly less effective than TAT-4EBP1-WT; cell viability / growth (OVCAR-3 cells): decreased cell viability in a dose-dependent manner
